{"source": "paper doi:10.1101/2024.10.14.618219", "about": "(bioRxiv, 2024)", "binders": {"B1": {"name": "Kap3 (natural protein, human, UniProt Q92845 1-792, looked up)", "chain": "MQGEDARYLKRKVKGGNIDVHPSEKALIVHYEVEATILGEMGDPMLGERKECQKIIRLKSLNANTDITSLARKVVEECKLIHPSKLNEVEQLLYYLQNRRDSLSGKEKKEKSSKPKDPPPFEGMEIDEVANINDMDEYIELLYEDIPDKVRGSALILQLARNPDNLEELLLNETALGALARVLREDWKQSVELATNIIYIFFCFSSFSQFHGLITHYKIGALCMNIIDHELKRHELWQEELSKKKKAVDEDPENQTLRKDYEKTFKKYQGLVVKQEQLLRVALYLLLNLAEDTRTELKMRNKNIVHMLVKALDRDNFELLILVVSFLKKLSIFMENKNDMVEMDIVEKLVKMIPCEHEDLLNITLRLLLNLSFDTGLRNKMVQVGLLPKLTALLGNDNYKQIAMCVLYHISMDDRFKSMFAYTDCIPQLMKMLFECSDERIDLELISFCINLAANKRNVQLICEGNGLKMLMKRALKFKDPLLMKMIRNISQHDGPTKNLFIDYVGDLAAQISNDEEEEFVIECLGTLANLTIPDLDWELVLKEYKLVPYLKDKLKPGAAEDDLVLEVVIMIGTVSMDDSCAALLAKSGIIPALIELLNAQQEDDEFVCQIIYVFYQMVFHQATRDVIIKETQAPAYLIDLMHDKNNEIRKVCDNTLDIIAEYDEEWAKKIQSEKFRWHNSQWLEMVESRQMDESEQYLYGDDRIEPYIHEGDILERPDLFYNSDGLIASEGAISPDFFNDYHLQNGDVVGQHSFPGSLGMDGFGQPVGILGRPATAYGFRPDEPYYYGYGS", "modifications": "SNAPf tag labeled with TMR in the co-localization assay"}}, "assay_in_all_cases": "single-molecule TIRF co-localization", "key": {"Kif3A^ΔC89-Kif3B": {"biological_target": "Kif3A^ΔC89-Kif3B (human, UniProt Q9Y496 1-610; O15066 1-747, SNAPf tag labeled with Alexa 647)", "sequence (Q9Y496 1-610, stated change not applied, chain 1 of 2)": "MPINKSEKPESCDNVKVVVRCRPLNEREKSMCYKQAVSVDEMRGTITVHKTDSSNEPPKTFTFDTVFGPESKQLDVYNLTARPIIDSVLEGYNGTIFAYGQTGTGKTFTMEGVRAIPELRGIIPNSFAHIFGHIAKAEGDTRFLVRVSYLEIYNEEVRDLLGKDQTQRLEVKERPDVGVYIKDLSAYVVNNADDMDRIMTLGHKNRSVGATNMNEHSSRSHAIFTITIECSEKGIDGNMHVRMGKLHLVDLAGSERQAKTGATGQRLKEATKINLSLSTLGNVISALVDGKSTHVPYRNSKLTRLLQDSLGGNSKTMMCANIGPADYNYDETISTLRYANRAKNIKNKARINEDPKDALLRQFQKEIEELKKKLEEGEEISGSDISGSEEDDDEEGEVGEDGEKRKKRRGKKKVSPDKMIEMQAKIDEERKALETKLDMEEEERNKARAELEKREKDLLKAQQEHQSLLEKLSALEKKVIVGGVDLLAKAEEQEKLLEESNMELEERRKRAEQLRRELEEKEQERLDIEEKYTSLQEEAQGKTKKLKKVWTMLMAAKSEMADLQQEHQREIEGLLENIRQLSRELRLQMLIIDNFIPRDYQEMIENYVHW", "sequence (O15066 whole entry, stated change not applied, chain 2 of 2)": "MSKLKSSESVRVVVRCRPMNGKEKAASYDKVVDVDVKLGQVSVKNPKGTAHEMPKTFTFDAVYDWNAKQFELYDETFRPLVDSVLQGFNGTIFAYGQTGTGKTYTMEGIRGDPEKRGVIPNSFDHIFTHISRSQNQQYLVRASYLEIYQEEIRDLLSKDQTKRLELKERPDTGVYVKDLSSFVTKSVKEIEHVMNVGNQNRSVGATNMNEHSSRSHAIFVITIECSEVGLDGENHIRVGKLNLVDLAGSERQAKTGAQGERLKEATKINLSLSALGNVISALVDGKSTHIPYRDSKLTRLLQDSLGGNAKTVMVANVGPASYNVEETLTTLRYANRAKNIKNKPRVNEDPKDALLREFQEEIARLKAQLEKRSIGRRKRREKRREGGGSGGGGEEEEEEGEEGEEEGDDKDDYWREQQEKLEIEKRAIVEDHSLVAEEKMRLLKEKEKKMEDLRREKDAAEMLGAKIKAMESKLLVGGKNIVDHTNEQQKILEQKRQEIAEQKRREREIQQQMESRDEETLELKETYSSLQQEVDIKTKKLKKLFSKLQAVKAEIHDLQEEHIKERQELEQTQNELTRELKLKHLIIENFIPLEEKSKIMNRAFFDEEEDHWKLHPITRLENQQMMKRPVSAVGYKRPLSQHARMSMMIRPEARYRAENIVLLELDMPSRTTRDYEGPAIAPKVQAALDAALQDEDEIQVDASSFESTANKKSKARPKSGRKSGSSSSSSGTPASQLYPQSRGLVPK"}, "Kif3A-Kif3B^ΔC90": {"biological_target": "Kif3A-Kif3B^ΔC90 (human, UniProt Q9Y496 1-699; O15066 1-657, SNAPf tag labeled with Alexa 647)", "sequence (Q9Y496 whole entry, stated change not applied, chain 1 of 2)": "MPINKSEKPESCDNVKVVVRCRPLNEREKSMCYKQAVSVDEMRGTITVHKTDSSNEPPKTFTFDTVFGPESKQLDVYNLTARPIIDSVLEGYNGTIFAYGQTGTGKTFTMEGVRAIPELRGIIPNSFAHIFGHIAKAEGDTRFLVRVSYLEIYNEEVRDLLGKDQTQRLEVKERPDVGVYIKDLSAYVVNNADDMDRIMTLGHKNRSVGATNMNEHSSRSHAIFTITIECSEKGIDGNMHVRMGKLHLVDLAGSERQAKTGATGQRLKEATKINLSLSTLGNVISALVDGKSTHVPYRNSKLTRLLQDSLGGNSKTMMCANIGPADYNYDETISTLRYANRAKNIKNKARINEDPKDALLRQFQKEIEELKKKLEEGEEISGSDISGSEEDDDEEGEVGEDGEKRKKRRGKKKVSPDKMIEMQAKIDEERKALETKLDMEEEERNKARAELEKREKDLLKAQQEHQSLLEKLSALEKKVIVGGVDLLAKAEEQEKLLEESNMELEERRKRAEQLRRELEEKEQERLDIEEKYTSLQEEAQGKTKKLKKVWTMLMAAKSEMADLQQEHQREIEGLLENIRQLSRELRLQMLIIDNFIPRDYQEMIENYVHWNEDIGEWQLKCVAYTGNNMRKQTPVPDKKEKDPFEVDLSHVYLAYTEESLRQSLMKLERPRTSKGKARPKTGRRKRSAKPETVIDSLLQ", "sequence (O15066 1-657, stated change not applied, chain 2 of 2)": "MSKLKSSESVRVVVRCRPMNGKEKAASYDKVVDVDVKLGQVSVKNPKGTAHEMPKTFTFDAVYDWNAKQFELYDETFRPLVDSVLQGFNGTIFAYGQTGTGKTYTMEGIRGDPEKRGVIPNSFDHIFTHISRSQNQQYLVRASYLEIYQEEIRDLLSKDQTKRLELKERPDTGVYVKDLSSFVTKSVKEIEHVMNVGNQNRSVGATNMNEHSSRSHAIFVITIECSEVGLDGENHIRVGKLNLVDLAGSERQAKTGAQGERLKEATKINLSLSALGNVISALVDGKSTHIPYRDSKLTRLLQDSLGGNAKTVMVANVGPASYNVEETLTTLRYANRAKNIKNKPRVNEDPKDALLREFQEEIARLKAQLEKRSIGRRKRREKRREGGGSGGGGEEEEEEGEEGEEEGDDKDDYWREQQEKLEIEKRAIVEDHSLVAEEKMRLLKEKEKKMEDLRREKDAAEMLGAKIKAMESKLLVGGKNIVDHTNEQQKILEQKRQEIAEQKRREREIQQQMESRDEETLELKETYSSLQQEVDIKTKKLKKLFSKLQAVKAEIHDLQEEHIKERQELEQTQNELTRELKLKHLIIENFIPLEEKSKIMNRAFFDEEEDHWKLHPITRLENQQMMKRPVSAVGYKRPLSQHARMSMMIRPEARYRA"}, "Kif3A-Kif3B^ΔC114": {"biological_target": "Kif3A-Kif3B^ΔC114 (human, UniProt Q9Y496 1-699; O15066 1-633, SNAPf tag labeled with Alexa 647)", "sequence (Q9Y496 whole entry, stated change not applied, chain 1 of 2)": "as the sequence (Q9Y496 whole entry, stated change not applied, chain 1 of 2) above", "sequence (O15066 1-633, stated change not applied, chain 2 of 2)": "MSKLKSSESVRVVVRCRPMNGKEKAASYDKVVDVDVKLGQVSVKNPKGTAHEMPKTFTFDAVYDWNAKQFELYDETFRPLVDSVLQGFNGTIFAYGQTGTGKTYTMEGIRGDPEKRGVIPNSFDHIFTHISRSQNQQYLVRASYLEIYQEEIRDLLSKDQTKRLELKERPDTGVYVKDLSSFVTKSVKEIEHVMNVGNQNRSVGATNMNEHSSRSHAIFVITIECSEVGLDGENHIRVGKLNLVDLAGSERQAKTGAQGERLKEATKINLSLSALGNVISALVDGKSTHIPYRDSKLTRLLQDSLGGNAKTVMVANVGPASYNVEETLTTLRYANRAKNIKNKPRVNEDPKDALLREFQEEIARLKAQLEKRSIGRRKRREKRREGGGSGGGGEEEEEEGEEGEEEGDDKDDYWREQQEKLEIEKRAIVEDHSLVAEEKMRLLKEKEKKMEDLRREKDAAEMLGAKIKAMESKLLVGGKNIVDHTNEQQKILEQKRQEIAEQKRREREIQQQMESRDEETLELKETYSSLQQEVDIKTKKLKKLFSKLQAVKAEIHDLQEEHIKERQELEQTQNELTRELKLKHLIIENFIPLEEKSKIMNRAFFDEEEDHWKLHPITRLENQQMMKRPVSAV"}}, "data": [{"binder": "B1", "values": [{"measurement": "percent of Kif3AB molecules with Kap3 co-localized", "setting": "Kif3A^ΔC89-Kif3B", "value": 26, "unit": "%"}, {"measurement": "percent of Kif3AB molecules with Kap3 co-localized", "setting": "Kif3A-Kif3B^ΔC90", "value": 62, "unit": "%"}, {"measurement": "percent of Kif3AB molecules with Kap3 co-localized", "setting": "Kif3A-Kif3B^ΔC114", "value": 50, "unit": "%"}]}]}
